Measured values reported in the Human Domainome abundance scans (Beltran et al. 2025).
± gives the uncertainty stated by the source.

B1: Integrator complex subunit 12, residues 155 to 213; numbered along this chain, Q96CB8 (parent)
chain: AMEMGLACVVCRQMMVASGNQLVECQECHNLYHRDCHKPQVTDKEANDPRLVWYCARCT

Variants of: B1
Assay: abundance fitness (aPCA) (normalised: wild type 0, dead -1); higher = more abundant; growth selection in yeast, the domain comes from the species named
Conditions: Homo sapiens

For Y32E, which abundance fitness is on record?
Its abundance fitness is -0.388 ± 0.068.

With Y32F as the variant, how does the abundance fitness read?
The abundance fitness was 0.003 ± 0.035.

For Y32A, which abundance fitness is on record?
Its abundance fitness is -0.128 ± 0.039.

With C25E as the variant, how does the abundance fitness read?
The abundance fitness was -0.824 ± 0.14.

For C25T, which abundance fitness is on record?
The abundance fitness was -0.622 ± 0.12.

With C25R as the variant, how does the abundance fitness read?
Its abundance fitness is -0.714 ± 0.084.

With C25K as the variant, how does the abundance fitness read?
Its abundance fitness is -0.915 ± 0.19.

Which abundance fitness does the source give for C25S here?
The abundance fitness was -0.662 ± 0.065.

For D48Q, which abundance fitness is on record?
Its abundance fitness is -0.002 ± 0.063.

Which abundance fitness does the source give for D48H here?
The abundance fitness was -0.081 ± 0.15.

With D48L as the variant, how does the abundance fitness read?
The abundance fitness was -0.138 ± 0.047.

For D48M, which abundance fitness is on record?
Its abundance fitness is -0.085 ± 0.071.

With D48N as the variant, how does the abundance fitness read?
The abundance fitness was -0.128 ± 0.069.

For D48T, which abundance fitness is on record?
The abundance fitness was 0.016 ± 0.063.

With D48F as the variant, how does the abundance fitness read?
Its abundance fitness is -0.254 ± 0.24.

For Q26E, which abundance fitness is on record?
The abundance fitness was -0.013 ± 0.086.

For Q26N, which abundance fitness is on record?
The abundance fitness was 0.013 ± 0.051.

Which abundance fitness does the source give for Q26T here?
Its abundance fitness is -0.052 ± 0.048.

For Q26I, which abundance fitness is on record?
Its abundance fitness is -0.155 ± 0.043.

Which abundance fitness does the source give for Q26P here?
The abundance fitness was -0.014 ± 0.06.

For Q26A, which abundance fitness is on record?
The abundance fitness was 0.007 ± 0.046.

Which abundance fitness does the source give for Q26V here?
The abundance fitness was -0.059 ± 0.043.

With C58A as the variant, how does the abundance fitness read?
Its abundance fitness is -0.869 ± 0.07.

For C58H, which abundance fitness is on record?
Its abundance fitness is -0.287 ± 0.075.

For C58D, which abundance fitness is on record?
Its abundance fitness is -0.8 ± 0.093.

For H29M, which abundance fitness is on record?
The abundance fitness was -0.097 ± 0.058.

With H29G as the variant, how does the abundance fitness read?
Its abundance fitness is -0.016 ± 0.03.

Which abundance fitness does the source give for H29T here?
Its abundance fitness is -0.216 ± 0.042.

Which abundance fitness does the source give for R12V here?
Its abundance fitness is -0.463 ± 0.041.

Which abundance fitness does the source give for R12D here?
Its abundance fitness is 0.038 ± 0.041.

Which abundance fitness does the source give for N47W here?
Its abundance fitness is -0.154 ± 0.064.

With N47L as the variant, how does the abundance fitness read?
Its abundance fitness is -0.05 ± 0.037.

Which abundance fitness does the source give for N47M here?
Its abundance fitness is -0.105 ± 0.056.

For N47E, which abundance fitness is on record?
Its abundance fitness is -0.005 ± 0.054.

With N47S as the variant, how does the abundance fitness read?
Its abundance fitness is 0.035 ± 0.041.

For N47K, which abundance fitness is on record?
The abundance fitness was -0.046 ± 0.066.

For N47Q, which abundance fitness is on record?
Its abundance fitness is -0.092 ± 0.053.

For P49V, which abundance fitness is on record?
Its abundance fitness is -0.082 ± 0.044.

For P49C, which abundance fitness is on record?
Its abundance fitness is -0.318 ± 0.077.

With P49F as the variant, how does the abundance fitness read?
Its abundance fitness is -0.333 ± 0.14.

For P49R, which abundance fitness is on record?
Its abundance fitness is -0.022 ± 0.041.

For P49G, which abundance fitness is on record?
The abundance fitness was 0.062 ± 0.044.

For L51D, which abundance fitness is on record?
The abundance fitness was 0.013 ± 0.066.

For L51H, which abundance fitness is on record?
Its abundance fitness is 0.063 ± 0.11.

For L51G, which abundance fitness is on record?
Its abundance fitness is 0.069 ± 0.046.

With L51A as the variant, how does the abundance fitness read?
The abundance fitness was 0.042 ± 0.054.

Which abundance fitness does the source give for C55L here?
The abundance fitness was -1.09 ± 0.089.

With C55Y as the variant, how does the abundance fitness read?
Its abundance fitness is -0.913 ± 0.13.

For C55M, which abundance fitness is on record?
The abundance fitness was -1.11 ± 0.11.

For C55I, which abundance fitness is on record?
Its abundance fitness is -1.09 ± 0.28.

With C55S as the variant, how does the abundance fitness read?
The abundance fitness was -0.897 ± 0.075.

For C55V, which abundance fitness is on record?
The abundance fitness was -1.08 ± 0.095.

Which abundance fitness does the source give for C55R here?
Its abundance fitness is -0.774 ± 0.05.

Which abundance fitness does the source give for S18A here?
The abundance fitness was 0.017 ± 0.036.

Which abundance fitness does the source give for S18G here?
The abundance fitness was -0.002 ± 0.032.

With S18I as the variant, how does the abundance fitness read?
The abundance fitness was -0.129 ± 0.037.

Which abundance fitness does the source give for S18T here?
Its abundance fitness is 0.037 ± 0.037.

Which abundance fitness does the source give for S18D here?
The abundance fitness was 0.043 ± 0.035.

With S18K as the variant, how does the abundance fitness read?
The abundance fitness was 0.009 ± 0.056.

Which abundance fitness does the source give for S18W here?
Its abundance fitness is -0.34 ± 0.058.

For S18C, which abundance fitness is on record?
Its abundance fitness is -0.135 ± 0.035.

For S18R, which abundance fitness is on record?
The abundance fitness was -0.066 ± 0.036.

With N20K as the variant, how does the abundance fitness read?
The abundance fitness was 0.02 ± 0.072.

With N20S as the variant, how does the abundance fitness read?
The abundance fitness was -0.036 ± 0.03.

With N20E as the variant, how does the abundance fitness read?
The abundance fitness was -0.007 ± 0.075.

Which abundance fitness does the source give for N20W here?
The abundance fitness was -0.281 ± 0.062.

For N20M, which abundance fitness is on record?
The abundance fitness was -0.387 ± 0.069.

Which abundance fitness does the source give for N20C here?
The abundance fitness was -0.098 ± 0.035.

With N20I as the variant, how does the abundance fitness read?
The abundance fitness was -0.089 ± 0.035.

Which abundance fitness does the source give for N20P here?
Its abundance fitness is -0.011 ± 0.048.

Which abundance fitness does the source give for R50C here?
Its abundance fitness is -0.104 ± 0.12.

Which abundance fitness does the source give for R50T here?
The abundance fitness was 0.041 ± 0.056.

With R50E as the variant, how does the abundance fitness read?
Its abundance fitness is 0.02 ± 0.056.

For R50P, which abundance fitness is on record?
Its abundance fitness is -0.033 ± 0.059.

For R50A, which abundance fitness is on record?
Its abundance fitness is 0.014 ± 0.048.

With R50M as the variant, how does the abundance fitness read?
The abundance fitness was -0.028 ± 0.06.

With R50K as the variant, how does the abundance fitness read?
The abundance fitness was 0.025 ± 0.073.

Which abundance fitness does the source give for D43S here?
The abundance fitness was -0.074 ± 0.038.

Which abundance fitness does the source give for D43N here?
Its abundance fitness is 0.043 ± 0.058.

Which abundance fitness does the source give for D43I here?
Its abundance fitness is -0.073 ± 0.06.

Which abundance fitness does the source give for D43Q here?
Its abundance fitness is -0.123 ± 0.048.

For D43T, which abundance fitness is on record?
Its abundance fitness is -0.08 ± 0.047.

With D43R as the variant, how does the abundance fitness read?
The abundance fitness was -0.25 ± 0.032.

With D43F as the variant, how does the abundance fitness read?
Its abundance fitness is -0.118 ± 0.082.
